Measured values reported in patent publication US20060286112A1 (published 2006).

B1: 6.44 (antibody, V domains shown)
VH: QVQLQESGPGLVKPSQTLSLICTVSGGSISRGDSYWSWIRQHPGKGLEWIGYIYYSGSTFYNPSLKSRVTISVDTSKNQFSLKLSSVTAADTAVYYCAREDRIFGVVDYWGQGTLVTVSS
VL: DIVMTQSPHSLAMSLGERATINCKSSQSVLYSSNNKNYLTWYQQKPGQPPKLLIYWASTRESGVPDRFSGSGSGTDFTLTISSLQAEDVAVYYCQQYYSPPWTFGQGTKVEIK
notes: human IgG2 or IgG4
B2: 10.1 (antibody, V domains shown)
VH: QVQLQQSGPGLVKPSETLSLTCTVSGASISSYYWSWIRQPAGKGLEWIGRIYASGSTNYNPSLKSRVTMSVDTSKSQFSLNLSSVTAADTAVYYCAREGWERLQDYYYYGLDVWGQGTTVTVSS
VL: EIVLTQSPGTLSLSPGERATLSCRASQSVSRNYLAWNQQKPGQAPRLLIYGASSRATGIPDRFSGSGSGTDFTLTISRLEPEDFAVYYCQQYGSSPLTFGGGTKVEIK
B3: 2.7 (antibody, V domains shown)
VH: EVQLVESGGGLVKPGGSLRLSCAASGFTFSNAWMSWVRQAPGKGLEWVGRIKRKTDGETTDYAAPVKGRFTISRDDSRNTLYLQMNSLKTEDTAVYYCTIYTYYYGMDVWGQGTTVTVSS
VL: DIQMTQSPSSLSASVGDRVTITCRASQSINNYLNWYQQKPGKAPKLLIYAASSLESGVPSRFSGSGSGTDFTLTISSLQPEDFATYYCQQSYSTPPTFGQGTKVEIK
notes: human IgG2 or IgG4; also called antibody 2.7
B4: 6.17 (antibody, V domains shown)
VH: EVQLVQSGAEVKKPGESLRISCKGSGYSVSSYWIGWVRQMPGKGLEWMGIIYPGDSDTRYSPSFQGQVTISADKSISTAFLQWISLKASDTAMYYCARLQGDCSGGSCYGHFDYWGQGTLVTVS
VL: EIVLTQSPGTLSLSPGERATLSCRASQTISSGYLAWYQQKPAQAPRLLIYVASRRATGIPDRFSGSGSGTDFTLTISRLEPEDFAVYYCQQYGSSSWTFGQGTTVEIK
notes: human IgG2 or IgG4
B5: 6.18 (antibody, V domains shown)
VH: EVQLVQSGAEVKKPGESLRISCKGSGYSVTSYWIGWVRQMPGKGLEWMGIIYPGDSDTRYSPSFQGQVTISADKSISTAYLQWSSLKASDTAMYYCARLQGDCSGGTCYGHFDYWGQGTLVTVS
VL: EIVLTQSPGTLSLSPGERATLSCRASQSVSSSYLAWYQQKPAQAPRLLIYVASRRATGIPDRFSGSGSGTDFTLTISRLEPEDFAVYYCQQYGTSSWTFGQGTTVEIK
notes: human IgG2 or IgG4
B6: 3.40 (antibody, V domains shown)
VH: QVQLVESGGGVVQPGRSLRLSCAASGFTFSTYGMHWVRQAPGKGLEWVAVIWYDGSKKYYADSVKGRFAISRDNSKNTLYLQMNSLRAEDTAVYYCARDHTMVRGVINSYYYGMAVWGQGTTVTVSS
VL: SYELTQPPSVSVSPGQTASITCSGDRLGNKYACWYQQKTGQSPVLVIYQDSKRPSGIPERFSGSNSGNTATLTISGTQAMDEADYYCQAWDSSTVVFGGGTKLTVL
notes: human IgG2 or IgG4
B7: 7.11 (antibody, V domains shown)
VH: QVQLQESGPGLVKPPETLSLTCTVSGGSISSHYWSWIRQPAGKGLEWIGRIYTSGSTNYNPPLKSRVTMSVDTSKNQFSLKLSSVTAADTAVYYCAREGYDFWSGYYNYYYGMDVWGQGTTVTVS
VL: EIVLTQSPGTLSLSPGERATLSCRASQSVISSYLAWYQQKPGQAPRLLIYGASSRATGIPDRFSGSGSGTDFTLTISRLEPEDFAVYYCQQYGSAFTFGGGTKVEIK
B8: 2.19 (antibody, V domains shown)
VH: QVQLQESGPGLVKPSETLSLTCTVSGDSISSYYWSWIRQPPGKGLEWIGYVYYSGSTNYNPSLKSRVTMSVDTSKNQFSLKLSSVTAADTAVYYCARDLELYAFDIWGQGTMVTVSS
VL: EIVLTQFPGTLSLSPGERVTLSCRASQSVSSTYVVWYQQKPGQAPRLLIYGASSRATGIPDRFSGSGSGTDFTLTISRLEPEDFAVYYCQQHGSSPWTFGQGTKVEIK
notes: human IgG2 or IgG4

Tests used:
[1] = biological target: T1, human CD49a I domain E66A (human, UniProt P56199 151-364, E66A); experiment: ELISA on secreted mutant I domain
T1 construct: domain: I domain; not shown: myc and His tags

[2] = biological target: T2, human CD49a I domain K142Q (human, UniProt P56199 151-364, K142Q); experiment: ELISA on secreted mutant I domain
T2 construct: domain: I domain; text prints KI42Q once; not shown: myc and His tags

[3] = biological target: T3, human CD49a I domain S162H (human, UniProt P56199 151-364, S162H); experiment: ELISA on secreted mutant I domain
T3 construct: domain: I domain; not shown: myc and His tags

[4] = biological target: T4, human CD49a I domain K88N (human, UniProt P56199 151-364, K88N); experiment: ELISA on secreted mutant I domain
T4 construct: domain: I domain; not shown: myc and His tags

[5] = biological target: T5, human CD49a I domain T204A (human, UniProt P56199 151-364, T204A); experiment: ELISA on secreted mutant I domain
T5 construct: domain: I domain; not shown: myc and His tags

[6] = biological target: T6, human CD49a I domain with residues 91-96 VQRGGR replaced by mouse GRRGGL (human, UniProt P56199 151-364, V91G; Q92R; R96L); experiment: ELISA on secreted mutant I domain
T6 construct: domain: I domain; also called V91G, Q92R, R96L; not shown: myc and His tags

[7] = biological target: T7, human CD49a I domain I11F (human, UniProt P56199 151-364, I11F); experiment: ELISA on secreted mutant I domain
T7 construct: domain: I domain; not shown: myc and His tags

[8] = biological target: T8, human CD49a I domain E48K (human, UniProt P56199 151-364, E48K); experiment: ELISA on secreted mutant I domain
T8 construct: domain: I domain; not shown: myc and His tags

[9] = biological target: T9, human VLA-1 (alpha 1/beta 1, CD49a/CD29) on IL-2 stimulated human PBMC / T cells (human, UniProt P56199 29-1179; P05556 21-798); experiment: cell-based or functional assay
[10] = biological target: T10, human VLA-1 α1 subunit (CD49a), full-length, on transfected CHO cells (human, UniProt P56199 29-1179); experiment: cell-based or functional assay
[11] = biological target: T10, human VLA-1 α1 subunit (CD49a), …; experiment: cell-based or functional assay; remark: listed apart in the source
[12] = biological target: T9, human VLA-1 (alpha 1/beta 1, …); experiment: cell-based or functional assay; remark: listed apart in the source
[13] = biological target: T9, human VLA-1 (alpha 1/beta 1, …); experiment: cell-based or functional assay; remark: listed apart in the source
[14] = biological target: T9, human VLA-1 (alpha 1/beta 1, …); experiment: cell-based or functional assay; remark: listed apart in the source

Row | Binder | binding result [1] | binding result [2] | binding result [3] | binding result [4] | binding result [5] | binding result [6] | binding result [7] | binding result [8] | % adhesion of T cells to collagen IV vs no antibody, 0.5 nM mAb, no PMA [9] | % adhesion of T cells to collagen IV vs no antibody, 5 nM mAb, no PMA [9] | relative inhibition at an optimal concentration, CHO-VLA-1 adhesion to collagen IV [10] | IC50, adhesion of CHO-VLA-1 cells to collagen IV [11] | % adhesion of IL-2 activated T cells to collagen IV vs no antibody, 10 µg/ml, +PMA [12] | % adhesion of IL-2 activated T cells to collagen IV vs no antibody, 10 µg/ml, -PMA [12] | % adhesion of T cells to collagen IV vs no antibody, 0.5 nM mAb, 10 ng/ml PMA [13] | % adhesion of T cells to collagen IV vs no antibody, 5 nM mAb, 10 ng/ml PMA [13] | T cell adhesion to immobilized collagen IV, relative estimated IC50 [14]
1 | B1 | binds | binds | binds | binds | binds | no binding | binds | binds | 70.7% | 25% | > 80% | 80 pM | 23.7% | 49.2% | 89.8% | 56.6% | 
2 | B2 |  |  |  |  |  |  |  |  | 101% | 76.6% |  | 1000 pM | 38.4% | 40.9% | 96.7% | 86.8% | > 5000 pM
3 | B3 | no binding | binds | binds | binds | binds | no binding | binds | binds | 33.5% | 12.1% | > 80% | 80 pM | 18% | 30% | 85.4% | 34.8% | 
4 | B4 | binds | binds | no binding | binds | binds | no binding | binds | binds | 76.3% | 22.3% | > 80% | 270 pM | 22.5% | 64.1% | 93.7% | 63.7% | 
5 | B5 | binds | binds | no binding | binds | binds | no binding | binds | binds | 85% | 19.7% | > 80% | 190 pM | 31.2% | 58.5% | 98.4% | 55.5% | 
6 | B6 | binds | binds | binds | binds | binds | binds | binds | no binding |  |  |  | 1300 pM |  |  |  |  | > 5000 pM
7 | B7 |  |  |  |  |  |  |  |  |  |  |  |  |  |  |  |  | > 5000 pM
8 | B8 | no binding | binds | binds | binds | binds | no binding | binds | binds |  |  | > 80% | 470 pM |  |  |  |  | 
